US20250043302A1, “MUTATED HYDROXYPHENYLPYRUVATE DIOXYGENASE POLYPEPTIDE, AND CODING GENE AND USE THEREOF” (BEIJING DABEINONG BIOTECHNOLOGY CO., LTD., priority 2021, published 2025)

B1: NtHPPDm-F383W-02: nucleotide sequence encoding Nicotiana tabacum HPPD with F383W; vector DBN11752 (nucleic acid)
DNA: ATGGGGAAGCTGGAAACCGTCACTACCACCTCGGCGGCGGCTGCTGATGATTCATCGGAATTAACAACCAACTTCAAGTTGGTTGGTTTCAAAAATTTCATCAGAACAAACCCAAGGTCTGATTTCTTCTCCGTCAAGAGCTTCCACCACATTGAATTCTGGTGCGGTGACGCAACTAACACAGCGCGCCGCTTCTCATGGAGCCTAGGGATGCCAATTGCAGCTAAGAGTGATCTTTCAACAGGAAACAGCGTGCACGCCTCCTACCTCCTCCGGCCCGTAAGCGGTTCTTTACAGTTCCTGTTTACAGCACCATATTCACCTTCTATTTCGACTCCTAGTTCAGCTGCAATCCCATCTTTTTCCACATCTACACATAGGTCTTTCACTACAACACATGGACTGGGTGTTCGTGCCGTCGCCCTCGAGGTGGAGAATGCTTATACTGCCTTCAGTGCTTCTGTCTCCAGAGGCGCCAAGCCAATGTTTGAACCTGTGACAATTGATGAACAAGTAGCAATGGCTGAGGTTCATTTGTACGGCGATGTTGTGCTGCGATTTGTTTCTTATCTCAAGGACGCCGACAACCTGGTCTTCCTGCCGGGGTTTGAGGCCATGGATGAAACTGCTAGTTACAAAGAACTTGATTATGGAATACGGCGTTTGGATCATGCTGTGGGCAATGTTCCAGAACTCGGCCCGGTAGTTGATTACATCAAGAGGTTTACTGGATTTCATGAATTTGCAGAGTTTACCGCTGAAGATGTGGGAACTGCGGAAAGTGGGCTAAACTCCATGGTTCTTGCGAACAATGATGAGACTGTGCTCCTCCCTCTGAATGAGCCTGTTTATGGCACCAAAAGAAAATCTCAGATACAAACATATCTTGAGCATAATGAAGGAGCTGGGGTGCAGCACCTTGCTCTTGTTACTGAAGACATCTTTAAGACTTTGACAGAGATGAGGAAGAGAAGTGGAGTTGGAGGTTTTGAGTTCATGCCTTCCCCCCCGCCGACCTACTACAAGAATTTGAAGAACAGGGCTGGTGACGTCCTCTCAGACGAGCAGATTTTGGCTTGTGAGGAGCTTGGCATCTTGGTAGACCGGGACGACCAGGGGACGCTTCTCCAAATTTTCACAAAACCCGTCGGGGACCGCCCCACCATATGGATTGAGATCATCCAGAGGATAGGCTGCATGCTTAAAGATGGAAAAGGTCAAGTGTACCAGAAGGGTGGTTGTGGTGGGTTTGGCAAAGGAAATTTTTCTGAGCTGTTCAGAAGCATAGAAGAATATGAGAAGACACTGGAAGCAAAACAAGCAAATCAAGTTGCGGCCGCGTGA
modifications: NtHPPDm-F383W-02 Nucleotide Sequence
notes: vector DBN11752
B2: OsHPPD-02: nucleotide sequence encoding wild-type Oryza sativa HPPD; vector DBN11754 (nucleic acid)
DNA: ATGCCACCCACGCCAACACCAACGGCCACCACTGGTGCCGTCTCGGCCGCGGCAGCGGCCGGTGAGAATGCTGGTTTCAGGCTAGTCGGCCACCGCCGCTTCGTGAGGGCAAATCCAAGATCTGATCGGTTCCAAGCACTTGCTTTCCACCATGTTGAGCTGTGGTGCGCTGACGCCGCTTCAGCTGCCGGGAGGTTTGCTTTTGCTTTAGGGGCGCCGCTCGCCGCAAGGAGTGATCTTTCCACCGGAAATTCTGCTCATGCTTCTCTTCTACTTAGATCAGCAAGTGTTGCATTTCTGTTCACTGCACCTTATGGCGGAGACCATGGTGTCGGGGCCGATGCTGCAACAACAGCTAGCATACCATCATTTTCTCCCGGCGCCGCAAGAAGATTTGCAGCCGATCATGGCCTGGCAGTTCATGCTGTGGCATTGAGGGTCGCCGACGCGGCTGATGCGTTCCGCGCCAGCGTGGCTGCTGGAGCTAGGCCGGCGTTCCAGCCTGCTGACCTTGGGGGTGGATTTGGATTGGCGGAGGTTGAATTATATGGTGATGTTGTGCTCCGTTTTGTTTCCCATCCAGATGGTGCTGATGCTCCATTTCTACCTGGATTTGAAGGGGTGTCAAACCCCGGCGCGGTGGATTATGGACTGCGTCGATTTGATCACGTGGTAGGTAATGTTCCTGAGTTGGCTCCCGTGGCGGCCTACATTTCAGGCTTTACTGGCTTCCATGAATTTGCCGAGTTCACCGCGGAAGATGTGGGAACTGCTGAAAGTGGATTGAACTCTGTTGTCCTGGCGAACAATGCAGAGACTGTATTGCTCCCCTTGAATGAGCCTGTGCACGGCACCAAACGGCGATCTCAAATTCAGACATACCTCGACCACCACGGGGGCCCTGGTGTTCAGCATATTGCTCTAGCCAGCGACGACGTACTGGGAACACTGAGGGAGATGAGAGCCCGTTCCGCCATGGGTGGCTTTGAGTTTCTGGCCCCTCCGCCGCCAAACTACTACGACGGCGTCAGACGGCGGGCGGGTGACGTCTTGAGTGAGGAGCAGATCAATGAATGTCAAGAACTTGGGGTTCTTGTTGATAGAGATGATCAAGGAGTGCTCCTCCAAATATTCACAAAACCTGTTGGCGACCGCCCGACCTTCTTCCTTGAAATGATCCAAAGGATCGGCTGCATGGAGAAGGATGAATCGGGCCAGGAGTACCAGAAGGGTGGGTGTGGTGGCTTTGGGAAGGGCAACTTCAGCGAGCTGTTCAAGTCAATTGAAGAATATGAAAAATCATTGGAGGCAAAGCAAGCTCCGACGGTGCAGGGAAGCTGA
modifications: OsHPPD-02 Nucleotide Sequence
notes: vector DBN11754

Columns and labels:
Format in all cases: in vivo
[1] = system: Arabidopsis thaliana T1 plants; assay: Topramezone tolerance of transgenic Arabidopsis thaliana T1 plants (spray, bleached leaf area grade, damage score); conditions: 7 DAT, Table 4; for Classification and statistics of the grade of pesticide damage: Grade 0 / Classification and statistics of the grade of pesticide damage: Grade 1 / Classification and statistics of the grade of pesticide damage: Grade 2 / Classification and statistics of the grade of pesticide damage: Grade 3: number of plants; for Scores: pesticide damage score 0-100
Method in brief: (§1)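 Read-out: per-plant damage grade 0–3 from proportion of bleached leaf area at 7 DAT (1 <50%, 2 >50%, 3 100%). Plants were T1 transformants, glufosinate-selected, plus wild-type CK, sprayed 18 days post-sowing. Rates: topramezone 25–200, isoxaflutole 35–280, mesotrione 52.5–420 g ai/ha.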

[2] = system: Arabidopsis thaliana T1 plants; assay: Isoxaflutole tolerance of transgenic Arabidopsis thaliana T1 plants (spray, bleached leaf area grade, damage score); set-up: Scores (pesticide damage): scale not given here; conditions: spray, Arabidopsis thaliana T1 plants; for Classification and statistics of the grade of pesticide damage: Grade 0 (number of plants) / Classification and statistics of the grade of pesticide damage: Grade 1 (number of plants) / Classification and statistics of the grade of pesticide damage: Grade 2 (number of plants) / Classification and statistics of the grade of pesticide damage: Grade 3 (number of plants): 16 plants
Method in brief: as §1

[3] = system: Arabidopsis thaliana T1 plants; assay: Mesotrione tolerance of transgenic Arabidopsis thaliana T1 plants (spray, bleached leaf area grade, damage score); set-up: Scores: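 damage score 0-100 computed as Σ(N×S)/(T×M)×100 over grades 0-3 with higher meaning more damage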; conditions: Arabidopsis thaliana T1 plants; for Grade 0 (classification and statistics of the grade of pesticide damage; number of plants) / Grade 1 (classification and statistics of the grade of pesticide damage; number of plants) / Grade 2 (classification and statistics of the grade of pesticide damage; number of plants) / Grade 3 (classification and statistics of the grade of pesticide damage; number of plants): 16 plants
Method in brief: as §1

[4] = isoxaflutole 35 g ai/ha (0.5x field concentration)
[5] = isoxaflutole 70 g ai/ha (1x field concentration)

Molecule	Classification and statistics of the grade of pesticide damage: Grade 0 ([1]; topramezone 25 g ai/ha (1×))	Classification and statistics of the grade of pesticide damage: Grade 1 ([1]; topramezone 25 g ai/ha (1×))	Classification and statistics of the grade of pesticide damage: Grade 2 ([1]; topramezone 25 g ai/ha (1×))	Classification and statistics of the grade of pesticide damage: Grade 3 ([1]; topramezone 25 g ai/ha (1×))	Classification and statistics of the grade of pesticide damage: Grade 0 ([1]; topramezone 100 g ai/ha (4×))	Classification and statistics of the grade of pesticide damage: Grade 1 ([1]; topramezone 100 g ai/ha (4×))	Classification and statistics of the grade of pesticide damage: Grade 2 ([1]; topramezone 100 g ai/ha (4×))	Classification and statistics of the grade of pesticide damage: Grade 3 ([1]; topramezone 100 g ai/ha (4×))	Scores ([1]; topramezone 25 g ai/ha (1×))	Scores ([1]; topramezone 100 g ai/ha (4×))	Resistance evaluation ([1]; topramezone 25 g ai/ha (1×))	Resistance evaluation ([1]; topramezone 100 g ai/ha (4×))	Resistance evaluation [2, 4]	Scores (pesticide damage) [2, 4]	Classification and statistics of the grade of pesticide damage: Grade 0 (number of plants) [2, 4]	Classification and statistics of the grade of pesticide damage: Grade 1 (number of plants) [2, 4]	Classification and statistics of the grade of pesticide damage: Grade 2 (number of plants) [2, 4]	Classification and statistics of the grade of pesticide damage: Grade 3 (number of plants) [2, 4]	Resistance evaluation [2, 5]	Scores (pesticide damage) [2, 5]	also measured
B1	0	0	10	6	0	0	0	16	79	100	non-resistant (non-resistant plants (scores 68-100))	non-resistant (non-resistant plants (scores 68-100))	Non-resistant	88	0	0	6	10	Non-resistant	100	Classification and statistics of the grade of pesticide damage: Grade 0 (number of plants) [2, 5]: 0; Classification and statistics of the grade of pesticide damage: Grade 1 (number of plants) [2, 5]: 0; Classification and statistics of the grade of pesticide damage: Grade 2 (number of plants) [2, 5]: 0; Classification and statistics of the grade of pesticide damage: Grade 3 (number of plants) [2, 5]: 16; Resistance evaluation ([3]; mesotrione 52.5 g ai/ha): Non-resistant; Scores ([3]; mesotrione 52.5 g ai/ha): 100; Grade 0 (classification and statistics of the grade of pesticide damage; number of plants) ([3]; mesotrione 52.5 g ai/ha): 0; Grade 1 (classification and statistics of the grade of pesticide damage; number of plants) ([3]; mesotrione 52.5 g ai/ha): 0; Grade 2 (classification and statistics of the grade of pesticide damage; number of plants) ([3]; mesotrione 52.5 g ai/ha): 0; Grade 3 (classification and statistics of the grade of pesticide damage; number of plants) ([3]; mesotrione 52.5 g ai/ha): 16; Resistance evaluation ([3]; mesotrione 105 g ai/ha): Non-resistant; Scores ([3]; mesotrione 105 g ai/ha): 100; Grade 0 (classification and statistics of the grade of pesticide damage; number of plants) ([3]; mesotrione 105 g ai/ha): 0; Grade 1 (classification and statistics of the grade of pesticide damage; number of plants) ([3]; mesotrione 105 g ai/ha): 0; Grade 2 (classification and statistics of the grade of pesticide damage; number of plants) ([3]; mesotrione 105 g ai/ha): 0; Grade 3 (classification and statistics of the grade of pesticide damage; number of plants) ([3]; mesotrione 105 g ai/ha): 16
B2	0	0	0	16	0	0	0	16	100	100	non-resistant (non-resistant plants (scores 68-100))	non-resistant (non-resistant plants (scores 68-100))	Non-resistant	100	0	0	0	16	Non-resistant	100	Classification and statistics of the grade of pesticide damage: Grade 0 (number of plants) [2, 5]: 0; Classification and statistics of the grade of pesticide damage: Grade 1 (number of plants) [2, 5]: 0; Classification and statistics of the grade of pesticide damage: Grade 2 (number of plants) [2, 5]: 0; Classification and statistics of the grade of pesticide damage: Grade 3 (number of plants) [2, 5]: 16; Resistance evaluation ([3]; mesotrione 52.5 g ai/ha): Non-resistant; Scores ([3]; mesotrione 52.5 g ai/ha): 100; Grade 0 (classification and statistics of the grade of pesticide damage; number of plants) ([3]; mesotrione 52.5 g ai/ha): 0; Grade 1 (classification and statistics of the grade of pesticide damage; number of plants) ([3]; mesotrione 52.5 g ai/ha): 0; Grade 2 (classification and statistics of the grade of pesticide damage; number of plants) ([3]; mesotrione 52.5 g ai/ha): 0; Grade 3 (classification and statistics of the grade of pesticide damage; number of plants) ([3]; mesotrione 52.5 g ai/ha): 16; Resistance evaluation ([3]; mesotrione 105 g ai/ha): Non-resistant; Scores ([3]; mesotrione 105 g ai/ha): 100; Grade 0 (classification and statistics of the grade of pesticide damage; number of plants) ([3]; mesotrione 105 g ai/ha): 0; Grade 1 (classification and statistics of the grade of pesticide damage; number of plants) ([3]; mesotrione 105 g ai/ha): 0; Grade 2 (classification and statistics of the grade of pesticide damage; number of plants) ([3]; mesotrione 105 g ai/ha): 0; Grade 3 (classification and statistics of the grade of pesticide damage; number of plants) ([3]; mesotrione 105 g ai/ha): 16
